Common to all, as to assay: fluorescence polarisation; 25 °C; unlabeled Rb^P titrated against 1.5 nM TMR-E2F1^TD or 7.5 nM TMR-E7^LxCxE; 25 mM Tris pH 8.0, 200 mM NaCl, 1 mM DTT, 0.1% Tween-20; 2 min incubation; quadratic fit; apparent Kd for the variants, Kd for WT
Common to all, as to settings: both partners purified
On the technique in general: In fluorescence polarisation assays a small probe gives low polarisation when free and higher when bound to something large.

Assay [1] addresses T1, Rb^P H686Y (human, UniProt P06400 380-788, H686Y).
T1 construct: also called variant 58
T1 sequence (looked up): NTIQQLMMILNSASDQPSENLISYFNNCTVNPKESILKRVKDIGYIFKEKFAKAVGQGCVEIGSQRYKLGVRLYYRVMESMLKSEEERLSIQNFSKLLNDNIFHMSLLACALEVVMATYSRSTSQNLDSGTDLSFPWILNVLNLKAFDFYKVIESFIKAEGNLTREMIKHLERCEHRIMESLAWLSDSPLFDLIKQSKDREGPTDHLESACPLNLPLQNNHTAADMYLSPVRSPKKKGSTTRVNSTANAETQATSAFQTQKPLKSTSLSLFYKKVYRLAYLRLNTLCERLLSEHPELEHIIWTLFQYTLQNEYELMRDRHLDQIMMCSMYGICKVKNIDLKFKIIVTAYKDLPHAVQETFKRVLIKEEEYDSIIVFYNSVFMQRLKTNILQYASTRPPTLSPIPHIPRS

In assay [2] the target is T2, Rb^P V754G (human, UniProt P06400 380-788, V754G).
T2 construct: also called variant 73
T2 sequence (looked up): T1 sequence (looked up) with Y307H, V375G

For assay [3], the target named is T3, Rb^P T687I (human, UniProt P06400 380-788, T687I).
T3 construct: also called variant 59
T3 sequence (looked up): T1 sequence (looked up) with Y307H, T308I

Assay [4] addresses T4, Rb^P R741S (human, UniProt P06400 380-788, R741S).
T4 construct: also called variant 70
T4 sequence (looked up): T1 sequence (looked up) with Y307H, R362S

Assay [5] deals with T5, Rb^P L572I (human, UniProt P06400 380-788, L572I).
T5 construct: also called variant 31
T5 sequence (looked up): T1 sequence (looked up) with L193I, Y307H

Substitutions are numbered along the chain they refer to. Names may count otherwise. No end group written: not given here. TMR = tetramethyl rhodamine dye

B1: TMR-E2F1^TD, peptide of the E2F1 transactivation domain (peptide)
peptide: {TMR}-GEGIRDLFDCDFGDLTPLD
notes: also called E2F^TD; source: synthetic peptide, bought: GenScript
Regarding B1, the Kd stood at 20 nM in assay [1]; 20 nM in assay [2]; 20 nM in assay [3]; 32 nM in assay [4]; 37 nM in assay [5].

B2: TMR-E7^LxCxE, LxCxE peptide of the E7 oncoprotein from HPV (peptide)
peptide: DLYCYEQLN
modifications: also: TMR label, position not given here
notes: source: synthetic peptide, bought: GenScript
Take B2: the Kd was determined as 5 nM in assay [1]; 7 nM in assay [2]; 13 nM in assay [3]; 16 nM in assay [4]; 4 nM in assay [5].

The values are drawn from article PMC11931385, “Structural and functional analysis of cancer-associated missense variants in the retinoblastoma protein pocket domain” (The Journal of Biological Chemistry, 2025).
